Laboratory results published in patent publication US10239925B2, “Peptides and combination of peptides for use in immunotherapy against ovarian cancer and other cancers” (IMMATICS BIOTECHNOLOGIES GMBH, priority 2015, dated 2019).

These substances were tested against HLA-A*02:01 (Homo sapiens, UniProt P04439, D140Y/D185E/D98H/E176V/E277Q/G131W/G231S/I119V/I121R/I166T/I218V/L300P/L318F/N151K/N90K/P208A/P217A/Q86G/Q94H/R138H/R169H/T345S) (assay: MHC binding assay (UV-ligand exchange, anti-β2m ELISA, peptide exchange yield)). Details: binding to HLA-A*02:01.
In short: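 Yield of stabilized complexes quantified via the β2m light chain in an ELISA (streptavidin capture, 100-fold diluted monomers, HRP anti-β2m 2 ug/ml at 37 °C, TMB, A450). The complexes come from UV-triggered replacement of a photocleavable ligand by the candidate peptide.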

Peptide exchange (MHC class I binding score, peptide exchange yield) | Substance
“+++” (>50 = +++) | 240 (ILLEQAFYL; listed as Homo sapiens) [compound 240]
“++” (>20% = ++) | 81 (FLFSQLQYL; listed as Homo sapiens) [compound 81]
“+++” (>50 = +++) | 476 (ALMERTGYSMV; listed as Homo sapiens) [compound 476]
“++” (>20% = ++) | 447 (QLVPALAKV; listed as Homo sapiens) [compound 447]
“+++” (>50 = +++) | 569 (KLVDRTWTL; listed as Homo sapiens) [compound 569]
“++” (>20% = ++) | 121 (GVVDPRAISVL; listed as Homo sapiens) [compound 121]
“+” (>10% = +) | 153 (FLIANVLYL; listed as Homo sapiens) [compound 153]
“+++” (>50 = +++) | 539 (ALFDAQAQV; listed as Homo sapiens) [compound 539]
“+++” (>50 = +++) | 369 (GLFPEHLIDV; listed as Homo sapiens) [compound 369]
“+++” (>50 = +++) | 595 (VLLSIYPRV; listed as Homo sapiens) [compound 595]
“+++” (>50 = +++) | 71 (GILARIASV; listed as Homo sapiens) [compound 71]
“+++” (>50 = +++) | 541 (SMLEPVPEL; listed as Homo sapiens) [compound 541]
“+++” (>50 = +++) | 193 (QLLDADGFLNV; listed as Homo sapiens) [compound 193]
“+++” (>50 = +++) | 575 (YLISQVEGHQV; listed as Homo sapiens) [compound 575]
“+++” (>50 = +++) | 614 (LLLPDQPPYHL; listed as Homo sapiens) [compound 614]
“+++” (>50 = +++) | 136 (YLADPSNLFVV; listed as Homo sapiens) [compound 136]
“+++” (>50 = +++) | 284 (ILLSQTTGV; listed as Homo sapiens) [compound 284]
“++” (>20% = ++) | 80 (FLYDNLVESL; listed as Homo sapiens) [compound 80]
“+++” (>50 = +++) | 591 (SMAELDIKL; listed as Homo sapiens) [compound 591]
“+++” (>50 = +++) | 101 (ILVGGGALATV; listed as Homo sapiens) [compound 101]
“+++” (>50 = +++) | 401 (ILLDDTGLAYI; listed as Homo sapiens) [compound 401]
“++” (>20% = ++) | 124 (ALYETELADA; listed as Homo sapiens) [compound 124]
“+++” (>50 = +++) | 324 (FLYDEIEAEV; listed as Homo sapiens) [compound 324]

Peptide exchange (MHC class I binding score, peptide exchange yield) | Substance
“+++” (>50 = +++) | 515 (LLQELVLFL; listed as Homo sapiens) [compound 515]
“+++” (>50 = +++) | 327 (GLAPFTEGISFV; listed as Homo sapiens) [compound 327]
“+++” (>50 = +++) | 601 (SAFPFPVTV; listed as Homo sapiens) [compound 601]
“+++” (>50 = +++) | 59 (IMEDIILTL; listed as Homo sapiens) [compound 59]
“++” (>20% = ++) | 47 (ILLSVPLLVV; listed as Homo sapiens) [compound 47]
“+++” (>50 = +++) | 391 (YVYPQRLNFV; listed as Homo sapiens) [compound 391]
“+++” (>50 = +++) | 473 (AMATESILHFA; listed as Homo sapiens) [compound 473]
“++” (>20% = ++) | 375 (SLTETIEGV; listed as Homo sapiens) [compound 375]
“+++” (>50 = +++) | 82 (FLSSVTYNL; listed as Homo sapiens) [compound 82]
“+++” (>50 = +++) | 468 (YLRSVGDGETV; listed as Homo sapiens) [compound 468]
“+++” (>50 = +++) | 427 (ALLPLSPYL; listed as Homo sapiens) [compound 427]
“+++” (>50 = +++) | 469 (YLASDEITTV; listed as Homo sapiens) [compound 469]
“+++” (>50 = +++) | 162 (YQQAQVPSV; listed as Homo sapiens) [compound 162]
“+++” (>50 = +++) | 444 (GLLRDEALAEV; listed as Homo sapiens) [compound 444]
“++” (>20% = ++) | 402 (VLFSGALLGL; listed as Homo sapiens) [compound 402]
“++” (>20% = ++) | 127 (KIGDEPPKV; listed as Homo sapiens) [compound 127]
“+++” (>50 = +++) | 96 (YIFTDNPAAV; listed as Homo sapiens) [compound 96]
“+++” (>50 = +++) | 586 (KLKPGDLVGV; listed as Homo sapiens) [compound 586]
“+++” (>50 = +++) | 206 (VLQEGKLQKLAQL; listed as Homo sapiens) [compound 206]
“+++” (>50 = +++) | 164 (ALLPQPKNLTV; listed as Homo sapiens) [compound 164]
“+++” (>50 = +++) | 623 (YLVEDIQHI; listed as Homo sapiens) [compound 623]
“+++” (>50 = +++) | 562 (YLEELPEKLKL; listed as Homo sapiens) [compound 562]
“+++” (>50 = +++) | 497 (GLLEKLTAI; listed as Homo sapiens) [compound 497]

Peptide exchange (MHC class I binding score, peptide exchange yield) | Substance
“++” (>20% = ++) | 458 (SLIDKLYNI; listed as Homo sapiens) [compound 458]
“+++” (>50 = +++) | 272 (ALGNTVPAV; listed as Homo sapiens) [compound 272]
“++++” (>75% = ++++) | 358 (ALDEYTSEL; listed as Homo sapiens) [compound 358]
“+++” (>50 = +++) | 46 (ILTEENIHL; listed as Homo sapiens) [compound 46]
“+++” (>50 = +++) | 514 (ILVDWLVQV; listed as Homo sapiens) [compound 514]
“++” (>20% = ++) | 270 (LLLDEEGTFSL; listed as Homo sapiens) [compound 270]
“+++” (>50 = +++) | 386 (ILFRYPLTI; listed as Homo sapiens) [compound 386]
“+++” (>50 = +++) | 352 (SLLELLHIYV; listed as Homo sapiens) [compound 352]
“++” (>20% = ++) | 211 (LLWPGAALL; listed as Homo sapiens) [compound 211]
“+++” (>50 = +++) | 342 (HIYDKVMTV; listed as Homo sapiens) [compound 342]
“++” (>20% = ++) | 376 (AMFESSQNVLL; listed as Homo sapiens) [compound 376]
“++” (>20% = ++) | 24 (SLSDGLEEV; listed as Homo sapiens) [compound 24]
“++++” (>75% = ++++) | 77 (ILVEADGAWVV; listed as Homo sapiens) [compound 77]
“+++” (>50 = +++) | 297 (VLADIELAQA; listed as Homo sapiens) [compound 297]
“++” (>20% = ++) | 459 (ALITEVVRL; listed as Homo sapiens) [compound 459]
“++” (>20% = ++) | 516 (AVGPASILKEV; listed as Homo sapiens) [compound 516]
“+++” (>50 = +++) | 490 (FLLQHVQEL; listed as Homo sapiens) [compound 490]
“++++” (>75% = ++++) | 337 (HLLSELEAAPYL; listed as Homo sapiens) [compound 337]
“+++” (>50 = +++) | 97 (SLINGSFLV; listed as Homo sapiens) [compound 97]
“++” (>20% = ++) | 33 (VLLSLLEKV; listed as Homo sapiens) [compound 33]
“++++” (>75% = ++++) | 347 (SLFKHDPAAWEA; listed as Homo sapiens) [compound 347]
